In publication doi:10.1101/2023.08.14.552755:

Columns and labels:
[1] = target: VpOmpM1 (OmpM1 from Veillonella parvula), full length, expressed in E. coli (Veillonella parvula); experiment: cryo-EM structure
[2] = target: VpOmpM1 stalk region (residues 22-107), soluble construct (Veillonella parvula); experiment: crystal structure

| Substance | stoichiometry N [1] | stoichiometry N [2] |
| --- | --- | --- |
| VpOmpM1 (OmpM1 from Veillonella parvula), full length, expressed in E. coli (natural protein) | 3 | – |
| VpOmpM1 stalk region (residues 22-107), soluble construct (domain or fragment) | – | 3 |
